Biological target: T1, histone H3 peptide aa1–20 trimethylated at K9 (H3K9me3) (UniProt P68431 2-21, trimethyl-lysine at K9; biotin attached to the C-terminus via a glycine-lysine linker)
T1 construct: histone H3 N-terminal tail, aa1–20; glycine-lysine linker (told in words), carries the biotin; also called H3K9me3 modified H3 1–20 peptide; source: synthetic peptide (GL biochem)
Experiment: affinity purification with mass spectrometry; biotinylated histone H3 peptides on NeutrAvidin beads; pooled nuclear and MNase-solubilised chromatin extracts of SILAC-labelled MPC11 cells adjusted to 150 mM NaCl, 4°C; washes with 150 mM KCl, 0.2% Triton X-100; heavy pulldowns against a mixed light reference (super-SILAC); beads alone as control; two replicates
Details: one partner purified

B1: Eed (natural protein)
chain: not shown
notes: Eed, mouse; also called PRC2 complex member; source: endogenous, MPC11 nuclear and chromatin extract
  fold binding relative to the H3K27me3 peptide: ~3 fold

B2: Ezh2 (enzyme)
chain: not shown
notes: Ezh2, mouse; also called PRC2 complex member; source: endogenous, MPC11 nuclear and chromatin extract
  fold binding relative to the H3K27me3 peptide: ~3 fold

B3: Suz12 (natural protein, mouse (endogenous in MPC11), UniProt Q80U70 1-741, looked up)
chain: MAPQKHGGGGGGGSGPSAGSGGGGFGGSAAAVAAAASGGKSGGGGCGGGGSYSASSSSAAAAAAAAGAAVLPVKKPKMEHVQADHELFLQAFEKPTQIYRFLRTRNLIAPIFLHRTLTYMSHRNSRTSIKRKTFKVDDMLSKVEKMKGEQESHSLSAHLQLTFTGFFHKNDKPSQNSENEQNSVTLEVLLVKVCHKKRKDVSCPIRQVPTGKKQVPLNPDLNQTKPGNFPSLAVSSNEFEPSNSHMVKSYSLLFRVTRPGRREFNGMINGETNENIDVSEELPARRKRNREDGEKTFVAQMTVFDKNRRLQLLDGEYEVAMQEMEECPISKKRATWETILDGKRLPPFETFSQGPTLQFTLRWTGETNDKSTAPVAKPLATRNSESLHQENKPGSVKPAQTIAVKETLTTELQTRKEKDNSNESRQKLRIFYQFLYNNNTRQQTEARDDLHCPWCTLNCRKLYSLLKHLKLCHSRFIFNYVYHPKGARIDVSINECYDGSYAGNPQDIHRQPGFAFSRNGPVKRTPITHILVCRPKRTKASMSEFLESEDGEVEQQRTYSSGHNRLYFHSDTCLPLRPQEMEVDSEDEKDPEWLREKTITQIEEFSDVNEGEKEVMKLWNLHVMKHGFIADNQMNHACMLFVENYGQKIIKKNLCRNFMLHLVSMHDFNLISIMSIDKAVTKLREMQQKLEKGESATPSNEEIAEEQNGTANGFSETNSKEKALETDGVSGVPKQSKKQKL
notes: Suz12, mouse; also called PRC2 complex member; source: endogenous, MPC11 nuclear and chromatin extract
  fold binding relative to the H3K27me3 peptide: ~3 fold

— article PMC4330348, “Identification of protein complexes that bind to histone H3 combinatorial modifications using super-SILAC and weighted correlation network analysis” (Nucleic Acids Research, 2015)
